Results: paper PMC314469, “Protein Interaction Networks by Proteome Peptide Scanning” (PLoS Biology, 2004)

T1: Abp1 SH3 (ABP1_YEAST), P15891
T1 chain: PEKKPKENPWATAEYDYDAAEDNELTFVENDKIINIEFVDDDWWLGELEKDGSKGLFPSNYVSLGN

T2: Myo5 SH3 (MYO5_YEAST), Q04439
T2 chain: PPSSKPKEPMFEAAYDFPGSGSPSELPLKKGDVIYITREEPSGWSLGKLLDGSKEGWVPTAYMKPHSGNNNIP


Target: T1, Abp1 SH3 (ABP1_YEAST), P15891
Assay: SPOT array

| Binder | normalised SPOT signal, Boehringer light units (BLU); mean over the file's lines of this peptide |
| --- | --- |
| KLAILTSPFEPPKP [YJR064W 268-281] | 40.4 |
| ILTSLPVPPPPVRP [YDL140C 235-248] | 208 |

Target: T2, Myo5 SH3 (MYO5_YEAST), Q04439
Assay: SPOT array

| Binder | normalised SPOT signal, Boehringer light units (BLU); mean over the file's lines of this peptide |
| --- | --- |
| KLAILTSPFEPPKP [YJR064W 268-281] | 173 |
| ILTSLPVPPPPVRP [YDL140C 235-248] | 617 |

target: Sho1 SH3 (SHO1_YEAST), P40073; assay: SPOT array
Sequence (P40073 295-366): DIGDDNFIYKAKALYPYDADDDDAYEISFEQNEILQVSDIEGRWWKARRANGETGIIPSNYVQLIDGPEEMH

| Binder | normalised SPOT signal, Boehringer light units (BLU); mean over the file's lines of this peptide |
| --- | --- |
| QLTPLLPDKYFDSA [693-706 putative transcription factor] | 57.6 |
| RLIPTSPQKTNINT [14-27 Hypothetical ORF] | 85.2 |
| PFIPKFPSRESVES | 163 |
| PIMPTLPPRPYITI [537-550 Hypothetical ORF] | 228 |
| PNYPDSPPKVTFIS [66-79 Similar to ubiquitin conjugating protein family] | 187 |
| QRHPKSPVKKPMTS [878-891 involved in bud site selection] | 190 |
| RAVPILPPRNNVEP [543-556 Hypothetical ORF] | 126 |
| NMVPLNPNRIIPDE [189-202 Product of gene unknown] | 130 |
| QSNPTSPTKQTFTI [600-613 BEM1-binding protein] | 39.1 |
| PLIPDNPGRLLSSK [311-324 Hypothetical ORF] | 83.2 |
| NVDPASPWRHELLS [76-89 Hypothetical ORF] | 102 |
| NLDPNPPVRGENLT [61-74 Hypothetical ORF] | 206 |
| NSLPSSPKKQPARN [173-186 Hypothetical ORF] | 198 |
| QGQPLPPPRGQVIL [287-300 Hypothetical ORF] | 159 |
| NIQPDLPPRKIMIP [90-103 Hypothetical ORF] | 197 |
| QYYPEEPTKPTVKT [6-19 gamma-aminobutyrate (GABA) transaminase (4-aminobutyrate aminotransferase)] | 111 |
| PPPPPPPSRKSGTP [477-490 Hypothetical ORF] | 261 |
| PVYPSLPERSKVIL [44-57 telomere binding protein] | 210 |
| QNTPPLPPKPKSPH [175-188 homologous to mouse and human Tsg101 tumor susceptibility genes] | 8430 |
| QIFPKKPLRRTVMS [166-179 involved in ion homeostasis] | 534 |
| QDSPDMPEKESVYV | 118 |
| QLLPNVPDKVLVPG [391-404 binds to single-stranded TG1-3 telomere G-tails] | 46.5 |
| QEKPLTPLKYTKLI [160-173 subunit of the chromatin remodeling Snf/Swi complex] | 143 |
| PNEPGAPSRLSFEN [285-298 ubiquitin carboxyl-terminal hydrolase] | 85.1 |
| PPEPATPSKKSLTT [169-182 origin recognition complex subunit 2] | 46 |
| NKVPTNPKKFKKAP [326-339 " involved in silencing at telomeres, HML, and HMR"] | 291 |
| NVQPRKPSRVHSRN [634-647 Hypothetical ORF] | 82.5 |

| Binder | normalised SPOT signal, Boehringer light units (BLU); mean over the file's lines of this peptide |
| --- | --- |
| QKTPPSPAKPKQKT [26-39 Component of the exocyst complex; homolog in rat brain called rExo84.] | 203 |
| QSQPPRPPRPAANL [24-37 Hypothetical ORF] | 128 |
| PFLPVLPQKPGGVR [35-48 succinate dehydrogenase membrane anchor subunit] | 1380 |
| QGLPASPSRAALRY [55-68 chitin synthase 2] | 140 |
| RERPLEPPRKPMAS | 554 |
| QLFPVRPVRVRHED [198-211 " RNA polymerase III (C) subunit, homologus to human BN51 protein"] | 95.2 |
| PPVPKAPSRRSSSL [943-956 negative regulator of early meiotic gene expression] | 144 |
| QTSPGQPRKGQNGS [427-440 soluble tyrosine-specific protein phosphatase] | 61.3 |
| NSPPVYPKRIRHFE [22-35 Hypothetical ORF] | 177 |
| QYIPPPPPKYINSK [482-495 Ume6p is a C6 zinc finger URS1-binding protein.] | 304 |
| PSNPALPKKLLNVP [345-358 negative regulator of early meiotic genes] | 178 |
| NKIPPKPRKVLQLL [93-106 Ribosomal protein L7A (L6A) (rp11) (YL8)] | 152 |
| NNNPVPPQKINQPP [198-211 Hypothetical ORF] | 190 |
| QPAPRIPSKDAIIS [100-113 transcription factor] | 498 |
| PKDPSSPQRDEILT [27-40 Hypothetical ORF] | 130 |
| QGEPLDPKRPSTAS [141-154 glucosidase I] | 124 |
| NLKPERPSKVSFEM [548-561 " Non-membrane-embedded, PEST sequence-containing protein"] | 339 |
| PNSPTPPLKSKVSR [1337-1350 transcriptional regulator] | 144 |
| NYIPPDPPKDIQLN [239-252 Hypothetical ORF] | 38.1 |
| RIPPTVPSKIIDVV [7-20 Hypothetical ORF] | 521 |
| RKRPAPPKKKAPST [82-95 ISWI One Complex] | 208 |
| PLPPIPPTKSKTSP [535-548 serine/threonine protein kinase] | 900 |
| PVGPKVPAKEPSPK [874-887 Hypothetical ORF] | 5820 |
| RGTPANPGRVATLI [47-60 Hypothetical ORF] | 123 |
| PLQPRPPVKPLSKQ [87-100 35 kDa mitochondrial ribosomal small subunit protein] | 85.4 |
| QGYPRQPQRPQRYH [27-40 "heat shock protein similar to HSP26, involved in cytoskeleton assembly"] | 195 |
| NIQPNIPLRSYRYL [782-795 Hypothetical ORF] | 117 |
